Measurements: the supplement of paper PMC7877785
± gives the uncertainty stated by the source.

Test: self-splicing fitness, log relative to wild type (ln ratio); higher = more splicing; Tetrahymena group I intron in knt gene, E. coli kanamycin selection, DiMSum; sequences stand for … in CUCUCU…GGAGGGAAAAGUUAUCAGGCAUGCACCUGGUAGCUAGUCUUUAAACCAAUAGAUUGCAUCGGUUUAAAAGGCAAGACCGUCAAAUUGCGGGAAAGGGGUCAACAGCCGUUCAGUACCAAGUCUCAGGGGAAACUUUGAGAUGGCCUUGCAAAGGGUAUGGUAAUAAGCUGACGGACAUGGUCCUAACCACGCAGCCAAGUCCUAAGUCAACAGAUCUUCUGUUGAUAUGGAUGCAGUUCACAGACUAAAUGUCGGUCGGGGAAGAUGUAUUCUUCUCAUAAGAUAUAGUCGGACCUCUCCUUAAUGGGAGCUAGCGGAUGAAGUGAUGCAACACUGGAGCCGCUGGGAACUAAUUUGUAUGCGAAAGUAUAUUGAUUAGUUUUGGAGUACUCGUGGUCG
How it was run: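 A randomised library covering all eight P1ex-region intron nucleotides was built with the intron in the knt kanamycin-resistance gene on pET-22b(+) and held in E. coli BL21(DE3). Cells were grown overnight at 37°C or 30°C on LB agar, with or without 25 μg/mL kanamycin, plus 100 μg/mL carbenicillin, 50 μM IPTG and 0.2% rhamnose, and pooled colonies were amplicon-sequenced on an Illumina HiSeq 2500. DiMSum fitness is the error-weighted combination of wild-type-normalised replicate fold changes, kanamycin versus none.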

Sequence | self-splicing fitness (ln) (30 °C) | self-splicing fitness (ln) (37 °C)
CUACAGCAAUAUUACGUCGG | -1.98 ± 0.066 | -0.736 ± 0.079
CUACAGCAAUAUUACGUGAA | -4.26 ± 0.19 | -2.08 ± 0.17
CUACAGCAAUAUUACGUGGU | -3.31 ± 0.22 | -3.03 ± 0.28
CUACAGCAAUAUUACGUGUG | -1.63 ± 0.055 | -0.0421 ± 0.061
CUACAGCAAUAUUACGUUAA | -3.48 ± 0.21 | -2.94 ± 0.2
CUACAGCAAUAUUACGUUGG | -3.51 ± 0.15 | -2.45 ± 0.14
CUAGAGCAAUAUUACGAAUA | -3.49 ± 0.48 | -1.86 ± 0.34
CUAGAGCAAUAUUACGAGGC | -3.08 ± 0.26 | -1.02 ± 0.23
CUAGAGCAAUAUUACGAGGG | -2.12 ± 0.19 | -1.73 ± 0.33
CUAGAGCAAUAUUACGAGUU | -3.23 ± 0.31 | -2.36 ± 0.3
CUAGAGCAAUAUUACGAUAC | -2.63 ± 0.35 | -2.25 ± 0.34
CUAGAGCAAUAUUACGAUAG | -0.96 ± 0.1 | 0.0398 ± 0.18
CUAGAGCAAUAUUACGAUCA | -2.35 ± 0.45 | –
CUAGAGCAAUAUUACGAUUC | -2.96 ± 0.29 | -2.75 ± 0.48
CUAGAGCAAUAUUACGCAAC | -1.32 ± 0.22 | –
CUAGAGCAAUAUUACGCCAA | -0.987 ± 0.2 | -2.54 ± 0.41
CUAGAGCAAUAUUACGCUGU | -3.92 ± 0.37 | -2.69 ± 0.36
CUAGAGCAAUAUUACGGAUA | – | -1.44 ± 0.4
CUAGAGCAAUAUUACGGCCU | -2.72 ± 0.44 | -1.69 ± 0.44
CUAGAGCAAUAUUACGGGCG | 0.0237 ± 0.11 | 0.638 ± 0.14
CUAGAGCAAUAUUACGGGUG | 0.162 ± 0.073 | -0.643 ± 0.082

Sequence | self-splicing fitness (ln) (30 °C) | self-splicing fitness (ln) (37 °C)
CUAGAGCAAUAUUACGGGUU | -4.2 ± 0.29 | -2.33 ± 0.23
CUAGAGCAAUAUUACGGUCU | – | -3.69 ± 0.34
CUAGAGCAAUAUUACGUAUU | -3.42 ± 0.17 | -3.03 ± 0.26
CUAGAGCAAUAUUACGUCCG | -0.472 ± 0.087 | -0.0677 ± 0.14
CUAGAGCAAUAUUACGUCUG | 0.15 ± 0.094 | 0.417 ± 0.11
CUAUAGCAAUAUUACGAACC | -2.11 ± 0.49 | –
CUAUAGCAAUAUUACGACCU | -2.85 ± 0.42 | –
CUAUAGCAAUAUUACGACGG | 0.143 ± 0.13 | 0.155 ± 0.15
CUAUAGCAAUAUUACGACUG | 0.0686 ± 0.17 | -0.119 ± 0.17
CUAUAGCAAUAUUACGAUAC | – | -2.61 ± 0.33
CUAUAGCAAUAUUACGAUCA | -3.08 ± 0.33 | 0.388 ± 0.31
CUAUAGCAAUAUUACGCCAG | -1.83 ± 0.18 | -0.622 ± 0.25
CUAUAGCAAUAUUACGCCUU | – | -2.27 ± 0.39
CUAUAGCAAUAUUACGGACG | 0.217 ± 0.093 | 0.437 ± 0.12
CUAUAGCAAUAUUACGGCGU | -4.65 ± 0.46 | -2.24 ± 0.43
CUAUAGCAAUAUUACGGGGA | -2.58 ± 0.17 | -2.87 ± 0.31
CUAUAGCAAUAUUACGGGUA | -2.54 ± 0.19 | -2.34 ± 0.21
CUAUAGCAAUAUUACGGUGG | -3.27 ± 0.24 | -2.22 ± 0.25
CUAUAGCAAUAUUACGUGGU | -3.34 ± 0.23 | -2.76 ± 0.2
CUAUAGCAAUAUUACGUGUC | -4.02 ± 0.24 | -3.09 ± 0.27
